Reference: patent publication US20260049138A1 (Chugai, published 2026)
Numbering of substitutions follows the chain as printed. Names and notes keep the numbering of the source.

B1: CE115HA000 D101H one-arm antibody (antibody, human IgG1, kappa, L234A L235A, N297A, name in Kabat numbering)
heavy: QVQLVESGGGVVQPGRSLRLSCAASGFTFSNAWMHWVRQAPGKGLEWVAQIKAKSNNYATYYAESVKGRFTISRDDSKNSLYLQMNSLKTEDTAVYYCRYVHYGAYYGVHAWGQGTTVTVSSASTKGPSVFPLAPSSKSTSGGTAALGCLVKDYFPEPVTVSWNSGALTSGVHTFPAVLQSSGLYSLSSVVTVPSSSLGTQTYICNVNHKPSNTKVDKKVEPKSCDKTHTCPPCPAPEAAGGPSVFLFPPKPKDTLMISRTPEVTCVVVDVSHEDPEVKFNWYVDGVEVHNAKTKPREEQYASTYRVVSVLTVLHQDWLNGKEYKCKVSNKALPAPIEKTISKAKGQPREPQVYTLPPSRCELTKNQVSLSCAVKGFYPSDIAVEWESNGQPENNYKTTPPVLDSDGSFFLVSKLTVDKSRWQQGNVFSCSVMHEALHNHYTQKSLSLSPDYKDDDDK
chain: EPKSSDKTHTCPPCPAPELLGGPSVFLFPPKPKDTLMISRTPEVTCVVVDVSHEDPEVKFNWYVDGVEVHNAKTKPREEQYNSTYRVVSVLTVLHQDWLNGKEYKCKVSNKALPAPIEKTISKAKGQPREPQVCTLPPSRDELTKNQVSLWCLVKGFYPSDIAVEWESNGQPENNYKTTPPVLDSDGSFFLYSKLTVDKSRWQQGNVFSCSVMHEALHNRYTQKSLSLSP
light: DIVMTQSPLSLPVTPGEPASISCRSSQSLVHSNRNTYLHWYQQKPGQAPRLLIYKVSNRFSGVPDRFSGSGSGTDFTLKISRVEAEDVGVYYCGQGTQVPYTFGQGTKLEIKRTVAAPSVFIFPPSDEQLKSGTASVVCLLNNFYPREAKVQWKVDNALQSGNSQESVTEQDSKDSTYSLSSTLTLSKADYEKHKVYACEVTHQGLSSPVTKSFNRGEC
B2: CE115HA000 G65D one-arm antibody (antibody, human IgG1, kappa, L234A L235A, N297A, name in Kabat numbering)
heavy: B1 heavy with G68D, H110D
chain: B1 chain
light: B1 light
B3: CE115HA000 G98P one-arm antibody (antibody, human IgG1, kappa, L234A L235A, N297A, name in Kabat numbering)
heavy: B1 heavy with G104P, H110D
chain: B1 chain
light: B1 light
B4: CE115HA000 G98H one-arm antibody (antibody, human IgG1, kappa, L234A L235A, N297A, name in Kabat numbering)
heavy: B1 heavy with G104H, H110D
chain: B1 chain
light: B1 light
B5: CE115HA000 G65E one-arm antibody (antibody, human IgG1, kappa, L234A L235A, N297A, name in Kabat numbering)
heavy: B1 heavy with G68E, H110D
chain: B1 chain
light: B1 light
B6: CE115HA000 G100bE one-arm antibody (antibody, human IgG1, kappa, L234A L235A, N297A, name in Kabat numbering)
heavy: B1 heavy with G108E, H110D
chain: B1 chain
light: B1 light
B7: CE115HA000 D101T one-arm antibody (antibody, human IgG1, kappa, L234A L235A, N297A, name in Kabat numbering)
heavy: B1 heavy with H110T
chain: B1 chain
light: B1 light
B8: CE115HA000 G98A one-arm antibody (antibody, human IgG1, kappa, L234A L235A, N297A, name in Kabat numbering)
heavy: B1 heavy with G104A, H110D
chain: B1 chain
light: B1 light
B9: CE115HA000 G98K one-arm antibody (antibody, human IgG1, kappa, L234A L235A, N297A, name in Kabat numbering)
heavy: B1 heavy with G104K, H110D
chain: B1 chain
light: B1 light
B10: CE115HA000 G98D one-arm antibody (antibody, human IgG1, kappa, L234A L235A, N297A, name in Kabat numbering)
heavy: B1 heavy with G104D, H110D
chain: B1 chain
light: B1 light
B11: CE115HA000 D101S one-arm antibody (antibody, human IgG1, kappa, L234A L235A, N297A, name in Kabat numbering)
heavy: B1 heavy with H110S
chain: B1 chain
light: B1 light
B12: CE115HA000 D101Y one-arm antibody (antibody, human IgG1, kappa, L234A L235A, N297A, name in Kabat numbering)
heavy: B1 heavy with H110Y
chain: B1 chain
light: B1 light
B13: CE115HA000 D101N one-arm antibody (antibody, human IgG1, kappa, L234A L235A, N297A, name in Kabat numbering)
heavy: B1 heavy with H110N
chain: B1 chain
light: B1 light
B14: CE115HA000 E61A one-arm antibody (antibody, human IgG1, kappa, L234A L235A, N297A, name in Kabat numbering)
heavy: B1 heavy with E64A, H110D
chain: B1 chain
light: B1 light
B15: CE115HA000 D101K one-arm antibody (antibody, human IgG1, kappa, L234A L235A, N297A, name in Kabat numbering)
heavy: B1 heavy with H110K
chain: B1 chain
light: B1 light
B16: CE115HA000 G98R one-arm antibody (antibody, human IgG1, kappa, L234A L235A, N297A, name in Kabat numbering)
heavy: B1 heavy with G104R, H110D
chain: B1 chain
light: B1 light
B17: CE115HA000 D101R one-arm antibody (antibody, human IgG1, kappa, L234A L235A, N297A, name in Kabat numbering)
heavy: B1 heavy with H110R
chain: B1 chain
light: B1 light
B18: CE115HA000 D101P one-arm antibody (antibody, human IgG1, kappa, L234A L235A, N297A, name in Kabat numbering)
heavy: B1 heavy with H110P
chain: B1 chain
light: B1 light
B19: CE115HA000 G98Y one-arm antibody (antibody, human IgG1, kappa, L234A L235A, N297A, name in Kabat numbering)
heavy: B1 heavy with G104Y, H110D
chain: B1 chain
light: B1 light
B20: CE115HA000 D101Q one-arm antibody (antibody, human IgG1, kappa, L234A L235A, N297A, name in Kabat numbering)
heavy: B1 heavy with H110Q
chain: B1 chain
light: B1 light
B21: CE115HA000 E61D one-arm antibody (antibody, human IgG1, kappa, L234A L235A, N297A, name in Kabat numbering)
heavy: B1 heavy with E64D, H110D
chain: B1 chain
light: B1 light
B22: CE115HA000 G98Q one-arm antibody (antibody, human IgG1, kappa, L234A L235A, N297A, name in Kabat numbering)
heavy: B1 heavy with G104Q, H110D
chain: B1 chain
light: B1 light
B23: CE115HA000 D101L one-arm antibody (antibody, human IgG1, kappa, L234A L235A, N297A, name in Kabat numbering)
heavy: B1 heavy with H110L
chain: B1 chain
light: B1 light
B24: CE115HA000 G98T one-arm antibody (antibody, human IgG1, kappa, L234A L235A, N297A, name in Kabat numbering)
heavy: B1 heavy with G104T, H110D
chain: B1 chain
light: B1 light
B25: CE115HA000 G98S one-arm antibody (antibody, human IgG1, kappa, L234A L235A, N297A, name in Kabat numbering)
heavy: B1 heavy with G104S, H110D
chain: B1 chain
light: B1 light
B26: CE115HA000 D101I one-arm antibody (antibody, human IgG1, kappa, L234A L235A, N297A, name in Kabat numbering)
heavy: B1 heavy with H110I
chain: B1 chain
light: B1 light
B27: CE115HA000 E61Q one-arm antibody (antibody, human IgG1, kappa, L234A L235A, N297A, name in Kabat numbering)
heavy: B1 heavy with E64Q, H110D
chain: B1 chain
light: B1 light
B28: CE115HA000 E61P one-arm antibody (antibody, human IgG1, kappa, L234A L235A, N297A, name in Kabat numbering)
heavy: B1 heavy with E64P, H110D
chain: B1 chain
light: B1 light
B29: CE115HA000 F29V one-arm antibody (antibody, human IgG1, kappa, L234A L235A, N297A, name in Kabat numbering)
heavy: B1 heavy with F29V, H110D
chain: B1 chain
light: B1 light
B30: CE115HA000 G100bD one-arm antibody (antibody, human IgG1, kappa, L234A L235A, N297A, name in Kabat numbering)
heavy: B1 heavy with G108D, H110D
chain: B1 chain
light: B1 light
B31: CE115HA000 D101V one-arm antibody (antibody, human IgG1, kappa, L234A L235A, N297A, name in Kabat numbering)
heavy: B1 heavy with H110V
chain: B1 chain
light: B1 light
B32: CE115HA000 D101M one-arm antibody (antibody, human IgG1, kappa, L234A L235A, N297A, name in Kabat numbering)
heavy: B1 heavy with H110M
chain: B1 chain
light: B1 light

What follows are binders tested against T1, CD3ε homodimer protein (human, UniProt P07766 23-126, limits assumed, sulfo-tag or biotin label in the ECL assays; amine-coupled to the chip in SPR) (assay: SPR Biacore T200; CD3ε homodimer on CM4 chip;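 further: Single-residue variant antibodies injected as analyte over CD3ε homodimer immobilized by amine coupling, run at 25 °C in HBS-EP+ buffer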).
T1 construct: also called human CD3ε homodimer protein; CD3 (CD3ε)
T1 sequence (P07766 23-126 limits assumed): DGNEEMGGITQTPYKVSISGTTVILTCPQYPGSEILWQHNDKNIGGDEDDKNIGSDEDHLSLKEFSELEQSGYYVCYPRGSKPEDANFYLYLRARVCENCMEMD

Row | ratio of amounts bound Z=Y/X (altered form / CE115HA000) | Binder
1 | 1.21 | B1
2 | 0.76 | B2
3 | 1.02 | B3
4 | 1.58 | B4
5 | 0.78 | B5
6 | 0.26 | B6
7 | 0.79 | B7
8 | 1.1 | B8
9 | 2.83 | B9
10 | 0.26 | B10
11 | 1.16 | B11
12 | 0.49 | B12
13 | 2.02 | B13
14 | 1.09 | B14
15 | 0.63 | B15
16 | 2.96 | B16

Row | ratio of amounts bound Z=Y/X (altered form / CE115HA000) | Binder
17 | 0.24 | B17
18 | 0.2 | B18
19 | 2.22 | B19
20 | 2.35 | B20
21 | 0.91 | B21
22 | 1.22 | B22
23 | 0.62 | B23
24 | 1.05 | B24
25 | 1.01 | B25
26 | 1.18 | B26
27 | 1.07 | B27
28 | 1.07 | B28
29 | 0.36 | B29
30 | 0.27 | B30
31 | 1.33 | B31
32 | 1.2 | B32
